Test results published in the supplement of paper PMC10126150.
± gives the standard deviation of the averaged measurements.

These sequences were tested on ATP (assay: switch fluorescence ratio, 500 uM ATP over buffer (Cy3 cluster intensity, sum of 5 cycles each) (fold (ratio)); higher = stronger signal-on switching upon ATP binding; sequences stand for … in TCGTCGGCAGCGTCAGATGTGTATAAGAGACAGTTTTTTTTTTTTTTTTTTTTTTTTT…TC). Details: aptamer strand: ATP DNA aptamer (quencher-CACCTGGGGGAGTATTGCGGAGGAAGG + anchor), 100 nM annealed; ATP concentration: 500 uM.
How it was run: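 Cy3-labelled switching-strand clusters on a modified Illumina MiSeq flow-cell were annealed to 100 nM quencher-labelled ATP aptamer, imaged in selection buffer, then imaged after 15 min with 500 uM ATP at 22 °C. Five buffer/ATP cycles ran, with NaOH stripping and re-annealing between them. The fluorescence ratio is summed target-cycle over summed buffer-cycle Cy3 intensity per cluster, averaged per switch-domain sequence. Clusters outside 100-1000 RFU were excluded.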
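Note: ATP exposure 15 min at 22 °C before imaging.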

Sequence | switch fluorescence ratio
GACAGTTAGC | 1.03 ± 0.013
GACATAAGCA | 1.03 ± 0.017
GACATAGGGT | 0.994 ± 0.025
GACATAGTGG | 1.006 ± 0.0012
GACATGAGGG | 1 ± 0.071
GACATGGGGC | 1.04 ± 0.058
GACATGGTTA | 1.02 ± 0.051
GACATTATAT | 1.028 ± 0.0025
GACATTATGC | 1.03 ± 0.014
GACATTCACT | 1.108 ± 0.0088
GACATTGTTG | 1.04 ± 0.055
GACATTTTGG | 1.03 ± 0.042
GACCAACAGT | 1.03 ± 0.021
GACCATCTGT | 1.02 ± 0.024
GACCCGGCTA | 1.04 ± 0.018
GACCGAGGGG | 0.989 ± 0.026
GACCTAGTGT | 1.03 ± 0.019
GACCTGTTTG | 0.987 ± 0.017
GACCTTTATA | 0.9914 ± 0.0062
GACGAAAAGG | 1.75 ± 1.1
GACGAAAGGC | 1.05 ± 0.02
GACGAAATTG | 0.99836 ± 0.0003
GACGAAGATC | 1.11 ± 0.016
GACGAAGCGG | 2.41 ± 0.047
GACGAGGGAT | 1.1 ± 0.034

Sequence | switch fluorescence ratio
GACGAGGGGG | 0.949 ± 0.11
GACGATGTAA | 1.18 ± 0.018
GACGCATGGT | 2.37 ± 0.15
GACGCCTAGT | 1.036 ± 0.0021
GACGCGGATG | 1.04 ± 0.02
GACGCGGCGT | 1.02 ± 0.029
GACGCGGGTC | 1.13 ± 0.026
GACGCGTCTC | 1.033 ± 0.0057
GACGCTCATG | 1.04 ± 0.033
GACGCTTCG | 0.931 ± 0.017
GACGGACAGG | 1.06 ± 0.024
GACGGACAGT | 1.13 ± 0.076
GACGGAGAGA | 1.23 ± 0.029
GACGGGATCT | 1.042 ± 0.0092
GACGGGATTG | 1.015 ± 0.006
GACGGGCACA | 1.13 ± 0.028
GACGGGGACC | 1.06 ± 0.063
GACGGGGATG | 1.03 ± 0.012
GACGGGGGTG | 1.01 ± 0.023
GACGGGGTGG | 1.01 ± 0.059
GACGGGTCTC | 1.001 ± 0.0098
GACGGTAGAG | 1.03 ± 0.02
GACGGTTTTT | 1.01 ± 0.024
GACGTAGAGC | 1.08 ± 0.026
GACGTATAG | 0.994 ± 0.022

Sequence | switch fluorescence ratio
GACGTATTTT | 0.9993 ± 0.0013
GACGTCAGAT | 0.9767 ± 0.0018
GACGTCCCAG | 0.966 ± 0.061
GACGTCTGGG | 0.986 ± 0.013
GACGTGCGAC | 1.29 ± 0.079
GACGTTAATA | 1.41 ± 0.04
GACGTTACCA | 1.61 ± 0.063
GACGTTATGG | 1.04 ± 0.016
GACGTTCTTG | 0.9862 ± 0.0027
GACGTTTCTG | 1.01 ± 0.098
GACGTTTTCC | 0.995 ± 0.097
GACGTTTTTG | 0.996 ± 0.011
GACTACGTTT | 1.02 ± 0.013
GACTAGTGAA | 0.9906 ± 0.0079
GACTAGTTGG | 0.983 ± 0.025
GACTATAGAT | 1.05 ± 0.034
GACTATGAAG | 0.99431 ± 0.00011
GACTATTGGT | 0.969 ± 0.0098
GACTCGAGGG | 0.99 ± 0.083
GACTCGATCC | 1.08 ± 0.023
GACTGCATCG | 1.03 ± 0.015
GACTGCTATA | 1.44 ± 0.043
GACTGGATGG | 0.98 ± 0.011
GACTGGCACG | 1.03 ± 0.034
GACTGGGACT | 1.08 ± 0.05

Sequence | switch fluorescence ratio
GACTGGGGGT | 0.998 ± 0.033
GACTGGGTCG | 1.06 ± 0.012
GACTGTAAGG | 0.997 ± 0.08
GACTGTGATG | 0.9708 ± 0.0097
GACTTAGGGA | 0.9949 ± 0.0013
GACTTCCATT | 1.07 ± 0.016
GACTTTATGG | 0.99 ± 0.035
GACTTTGAAT | 1.014 ± 0.0089
GACTTTTTGT | 0.994 ± 0.011
GAGAAAAACC | 1.02 ± 0.041
GAGAAAAGTG | 1.03 ± 0.086
GAGAAACATT | 1.06 ± 0.029
GAGAAAGCAG | 0.977 ± 0.025
GAGAAAGGCT | 0.97 ± 0.019
GAGAAAGGGT | 0.988 ± 0.019
GAGAAATCTT | 1.01 ± 0.03
GAGAAATGAT | 0.984 ± 0.0087
GAGAAGCACG | 0.978 ± 0.055
GAGAAGTTTG | 1.01 ± 0.018
GAGAATAGAG | 0.989 ± 0.022
GAGAATAGCG | 0.988 ± 0.028
GAGAATCACG | 0.9961 ± 0.0024
GAGAATCGGG | 0.9564 ± 0.0089
GAGACAAGGA | 0.97095 ± 8.1e-05
GAGACATGTT | 0.99 ± 0.065

Sequence | switch fluorescence ratio
GAGACCTTTT | 1.13 ± 0.17
GAGAGATGGG | 0.988 ± 0.018
GAGAGGAGGC | 1.07 ± 0.063
GAGAGGCAAA | 1.01 ± 0.018
GAGAGGGGAT | 1.03 ± 0.036
GAGAGGGGCA | 0.999 ± 0.018
GAGAGGTCGG | 1.012 ± 0.0016
GAGAGGTTGT | 1 ± 0.024
GAGAGTCTTC | 0.985 ± 0.0088
GAGAGTGCGG | 1.04 ± 0.0067
GAGAGTTGCG | 1.04 ± 0.027
GAGAGTTGGG | 0.985 ± 0.022
GAGATAAGCC | 1.03 ± 0.022
GAGATAGGTA | 0.997 ± 0.024
GAGATATGAG | 1.02 ± 0.024
GAGATATTTA | 0.9905 ± 0.0036
GAGATCGAGG | 1.03 ± 0.017
GAGATCTGCT | 0.957 ± 0.015
GAGATGGTGC | 0.99 ± 0.053
GAGATGTTAG | 0.971 ± 0.017
GAGATTGCGT | 1.01 ± 0.028
GAGATTGGTT | 1.007 ± 0.0072
GAGATTGTGA | 0.992 ± 0.039
GAGATTTAGC | 1.03 ± 0.035
GAGATTTTGT | 0.998 ± 0.036

Sequence | switch fluorescence ratio
GAGCAACGGA | 1.02 ± 0.031
GAGCAGTCGG | 0.982 ± 0.036
GAGCCTGGTT | 0.967 ± 0.035
GAGCCTTTGT | 1.002 ± 0.006
GAGCGAGGGG | 0.9836 ± 0.0074
GAGCGCTTGG | 1.01 ± 0.037
GAGCGGCGGG | 0.996 ± 0.026
GAGCGGGATG | 0.986 ± 0.031
GAGCGGTTAT | 1.33 ± 0.42
GAGCGTGACG | 1 ± 0.045
GAGCTACCCG | 1.04 ± 0.031
GAGCTACGTA | 1.04 ± 0.026
GAGCTAGAAA | 1.05 ± 0.065
GAGCTATTCT | 1.08 ± 0.0029
GAGCTCAAGT | 0.991 ± 0.062
GAGCTCACGG | 1.02 ± 0.017
GAGCTCCAGA | 1.0093 ± 0.00081
GAGCTCTTTC | 1.01 ± 0.017
GAGCTGAGCG | 0.996 ± 0.031
GAGCTGTAAC | 1.02 ± 0.053
GAGGAAAGGG | 0.989 ± 0.013
GAGGACCCAG | 1.01 ± 0.027
GAGGACGGTG | 1.03 ± 0.015
GAGGACTAGG | 1.01 ± 0.013
GAGGACTATT | 0.999 ± 0.046

Sequence | switch fluorescence ratio
GAGGAGCTAA | 1.006 ± 0.0034
GAGGATGCTC | 1.01 ± 0.015
GAGGATTGTG | 0.976 ± 0.012
GAGGATTTAG | 0.964 ± 0.013
GAGGATTTTG | 1.003 ± 0.0089
GAGGCAAGTG | 1.12 ± 0.055
GAGGCAATTT | 2.87 ± 0.68
GAGGCAGGGG | 1.04 ± 0.072
GAGGCAGTTG | 0.993 ± 0.076
GAGGCATGGA | 0.9864 ± 0.0039
GAGGCATGGG | 1.027 ± 0.0065
GAGGCCCTGA | 0.971 ± 0.035
GAGGCCGGAA | 1.07 ± 0.016
GAGGCGCAGT | 0.9988 ± 0.0024
GAGGCGGGGG | 0.988 ± 0.012
GAGGCTAATT | 1.03 ± 0.057
GAGGCTCGGA | 0.982 ± 0.029
GAGGCTGTAT | 1 ± 0.011
GAGGCTGTGC | 1.052 ± 0.0057
GAGGGAATTT | 1.01 ± 0.021
GAGGGACTAA | 0.9972 ± 0.0095
GAGGGACTCT | 0.964 ± 0.013
GAGGGAGCTT | 1.04 ± 0.026
GAGGGAGGAG | 1 ± 0.029
GAGGGATGGG | 0.975 ± 0.017

Sequence | switch fluorescence ratio
GAGGGATGTT | 1.01 ± 0.0092
GAGGGATTCC | 1.06 ± 0.095
GAGGGCACTT | 0.978 ± 0.043
GAGGGCCTTA | 0.9885 ± 0.0025
GAGGGCGGCG | 1.01 ± 0.11
GAGGGCTAGT | 0.9713 ± 0.0027
GAGGGGAAGC | 0.985 ± 0.046
GAGGGGACAG | 0.979 ± 0.035
GAGGGGAGAC | 1.02 ± 0.048
GAGGGGCAGT | 0.975 ± 0.02
GAGGGGCGAC | 0.974 ± 0.032
GAGGGGGCCC | 1.01 ± 0.026
GAGGGGGGCG | 1.04 ± 0.085
GAGGGGGTGC | 1.04 ± 0.069
GAGGGGTAGG | 0.977 ± 0.021
GAGGGGTATT | 0.986 ± 0.016
GAGGGGTCAG | 1 ± 0.039
GAGGGGTCCG | 1 ± 0.11
GAGGGGTGCA | 0.992 ± 0.015
GAGGGGTGGG | 1.04 ± 0.076
GAGGGGTTCG | 1.01 ± 0.022
GAGGGTACTG | 1.032 ± 0.0053
GAGGGTTAAG | 1.02 ± 0.029
GAGGGTTCGG | 0.972 ± 0.031
GAGGGTTTGA | 1.0098 ± 0.00022
